Reference: paper PMC10409785 (Nature Communications, 2023)

Biological target: T1, human Uba7 (human, UniProt P41226 1-1012, Cys599 crosslinked to UBE2L6 Cys86 (in the cryo-EM complexes only))
T1 construct: also called hUba7; E1; source: E. coli BL21 codon plus or Hi5 insect cells (baculovirus), purified (Ni-NTA, Superdex 200, Enrich Q); not shown: His6 (insect cell construct), N-terminal, cleaved
T1 sequence: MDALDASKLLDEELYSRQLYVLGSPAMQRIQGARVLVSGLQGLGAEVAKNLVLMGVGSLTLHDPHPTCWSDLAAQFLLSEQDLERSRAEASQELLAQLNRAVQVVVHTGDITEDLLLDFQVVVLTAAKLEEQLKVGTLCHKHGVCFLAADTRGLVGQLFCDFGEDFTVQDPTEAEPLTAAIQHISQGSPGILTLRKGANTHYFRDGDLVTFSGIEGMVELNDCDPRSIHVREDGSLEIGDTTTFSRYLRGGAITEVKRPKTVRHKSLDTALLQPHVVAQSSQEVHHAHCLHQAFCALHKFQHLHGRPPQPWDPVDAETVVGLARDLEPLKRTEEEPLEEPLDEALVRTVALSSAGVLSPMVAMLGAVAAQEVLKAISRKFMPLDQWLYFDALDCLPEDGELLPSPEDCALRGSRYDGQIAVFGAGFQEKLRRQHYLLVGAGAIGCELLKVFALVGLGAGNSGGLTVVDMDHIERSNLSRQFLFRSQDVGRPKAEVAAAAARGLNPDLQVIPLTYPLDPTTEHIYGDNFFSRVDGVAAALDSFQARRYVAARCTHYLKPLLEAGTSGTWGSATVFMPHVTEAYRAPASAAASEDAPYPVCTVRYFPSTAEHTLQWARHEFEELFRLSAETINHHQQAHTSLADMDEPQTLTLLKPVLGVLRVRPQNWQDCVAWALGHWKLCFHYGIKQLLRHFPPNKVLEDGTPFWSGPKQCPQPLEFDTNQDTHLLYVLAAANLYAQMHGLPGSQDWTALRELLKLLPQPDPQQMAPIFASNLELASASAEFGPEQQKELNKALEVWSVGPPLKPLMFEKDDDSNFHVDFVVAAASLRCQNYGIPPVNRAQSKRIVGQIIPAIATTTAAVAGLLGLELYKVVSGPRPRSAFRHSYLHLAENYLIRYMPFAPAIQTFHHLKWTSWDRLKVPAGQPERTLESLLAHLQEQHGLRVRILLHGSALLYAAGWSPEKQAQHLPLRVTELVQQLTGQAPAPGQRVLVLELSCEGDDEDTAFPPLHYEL
Assay: cryo-EM structure; double-loaded Uba7-UBE2L6-ISG15(t)/ISG15(a) mimetic: ISG15 C76S isopeptide-linked to UBE2L6 L121K, UBE2L6 Cys86 (Aldrithiol-4 activated) crosslinked to Uba7 Cys599, then 1.2 molar excess of ISG15, ATP and Mg2+ for 30 min at 4 °C; frozen at 3.0 mg/ml
Details: both partners purified

B1: UBE2L6 (C98S/C102S/L121K) (enzyme, human)
chain: MASMRVVKELEDLQKKPPPYLRNLSSDDANVLVWHALLLPDQPPYHLKAFNLRISFPPEYPFKPPMIKFTTKIYHPNVDENGQICLPIISSENWKPSTKTSQVLEALNVLVNRPNIREPKRMDLADLLTQNPELFRKNAEEFTLRFGVDRPS
modifications: Lys121 (L121K) isopeptide-linked to Gly157 of ISG15 C76S; Cys86 activated with Aldrithiol-4 and crosslinked to Uba7 Cys599
notes: The 6XHis-tag was cleaved with TEV protease 'when required'; source: E. coli BL21 codon plus, purified (Ni-NTA, Superdex 75, Enrich Q)
binding result: binds
